# B1: residues 1050-1192: His6-Human TopBP1 fragment containing residues 1050-1192 (protein, UniProt Q92547 1050-1192, looked up, fragment)
# chain: NGSGKNDSKGVLTQTLEMRENFQKQLQEIMSATSIVKPQGQRTSLSRSGCNSASSTPDSTRSARSGRSRVLEALRQSRQTVPDVNTEPSQNEQIIWDDPTAREERARLASNLQWPSCPTQYSELQVDIQNLEDSPFQKPLHDS
# modifications: His6 tag
# B2: wild-type 978-1286 fragment of human TopBP1: EGFP containing the SV40 nuclear localization sequence and residues 978-1286 of human TopBP1, expressed from transfected plasmid (protein)
# chain: KKKRKVAQECKHLPESLYPHTYNPKMSLDISAVQDGRLCNSRLLSAVSSTKDDEPDPLILEENDVDNMATNNKESAPSNGSGKNDSKGVLTQTLEMRENFQKQLQEIMSATSIVKPQGQRTSLSRSGCNSASSTPDSTRSARSGRSRVLEALRQSRQTVPDVNTEPSQNEQIIWDDPTAREERARLASNLQWPSCPTQYSELQVDIQNLEDSPFQKPLHDSEIAKQAVCDPGNIRVTEAPKHPISEELETPIKDSHLIPTPQAPSIAFPLANPPVAPHPREKIITIEETHEELKKQYIFQLSSLNPQERIDYCHL
# modifications: left off: large carriers
# B3: 1008-1286 fragment: His6-Human TopBP1 fragment, residues 1008-1286 (protein)
# chain: RLCNSRLLSAVSSTKDDEPDPLILEENDVDNMATNNKESAPSNGSGKNDSKGVLTQTLEMRENFQKQLQEIMSATSIVKPQGQRTSLSRSGCNSASSTPDSTRSARSGRSRVLEALRQSRQTVPDVNTEPSQNEQIIWDDPTAREERARLASNLQWPSCPTQYSELQVDIQNLEDSPFQKPLHDSEIAKQAVCDPGNIRVTEAPKHPISEELETPIKDSHLIPTPQAPSIAFPLANPPVAPHPREKIITIEETHEELKKQYIFQLSSLNPQERIDYCHL
# modifications: left off: small tags and cut ends
# B4: GST-XtopBP1 (1197-1513): GST fusion of XtopBP1 residues 1197-1513, containing two adjoining BRCT repeats (protein)
# chain: EFEPKSAMRTPVIENNLQSPTKPDHLTPTPQAPSIAFPLANPPVAPQPREKPVQPFSKEETLKERRFQLSSLDPQERIDYSQLIEELGGVVIEKQCFDPSCTHIVVGHPLRNEKYLASMAAGKWVLHRSYLEACRAAKRFIQEEDYEWGSISILSAVTNINPQQRMLAEAAMRWRKKLQGIKQNMGIAEGAFSGWKVILNVDQTKEPGFKRLLQSGGAKVFAGHSSPLFKEASHLFADFSKLKPDEPRVNVAEAAAQGVNCLKPEYIADYLMKELPPPMNNYCLPDAIPYVRVTGTGLSRKRKTSGDVSDVKRSRHY
# modifications: left off: a dimerising Fc or GST
# notes: GST fusion of XtopBP1 residues 1197-1513, containing two adjoining BRCT repeats
# B5: XtopBP1Δ993-1196: full-length version of XtopBP1 in which most of the ATR-activating domain had been deleted (protein)
# chain: MASSENEPFCVKFIKSPENSEYFFKAYEAIKQIQSDESLQLTEEREALLLKEKDKSLYICDPFSGAAFSHLKKLGCRIVGPQVVIFCMENQRRVPRAEYPVYNMAMADVTISCTSLDKETREDVHHYVQIMGGCVYRDLNVSVTHLIAGEVGSKKYLVAASLEKPILLPSWVKELWEKSNQRIIRYSDVNMTEYLCPIFRGCTICVTGLSSLDRKEVQRLTALHGGEYTGQLKMNESTHLIVQEAKGQKYECARKWNVHCISVQWFFDSIEKGFCQDETMYKIEPASTIKSVPDTSTPTGGNSKPNSRALYDVSQISNISTSCVNESAFNSAMASRLDPPADTLENLDISSLQAPDDLLDGCRIYLCGFGGRKLDKLRKLINNGGGVRFNQLTGDVTHIIVGETDEELKQFLNKTQHRPYVLTVKWLLDSFAKGHLQPEEIYFHSSYQQTEMPSPFEPAINLTANKMSSTRGPLNHTRNHQADEDLLSQYTENNSTLIEDEHPKTSNTNSISQMSMHEDMTTCTSQSGLADTSTIIEGGLFSRKQFMVLGFLEEDEACIIDIIKKSAGKVLSSQKRAIADYAVVPLLGCEVESTVGEVVTNAWLGMCIEQEKLLDPHSNALFTPVPFLEGSTPLRECVLSVSQFMGAERDSLVYLAGLLGAKVQEFFVRKANPKKGMFASTHLVLKDAEGSKYEAAKKWNLPAVTMNWLLQCARTGRKADEDSYLVDNVPEEDKDESFISQTYKPQAIRLSMHAPCHLENHPEALTKAAVTPLDMNRFKSKAFQSVISQHNKNPQTSGGESKVLQREPSLHLDTPSKFLSKDKLFKPSFDVKDALAALETPGGPNQKNRTQSTPLSEVIGRNLQLAIANSTRQTAAVTASPQLKAAEKKEFDNSKLLINVVICVSKKLIKKQGELNGIAASLGAEYRWCFDESVTHFIYHGRQNDMSREYKSVKERSGIYIVSEHWLFACSEQQKRVPEALYPHTYNPKMSLEFEPKSAMRTPVIENNLQSPTKPDHLTPTPQAPSIAFPLANPPVAPQPREKPVQPFSKEETLKERRFQLSSLDPQERIDYSQLIEELGGVVIEKQCFDPSCTHIVVGHPLRNEKYLASMAAGKWVLHRSYLEACRAAKRFIQEEDYEWGSISILSAVTNINPQQRMLAEAAMRWRKKLQGIKQNMGIAEGAFSGWKVILNVDQTKEPGFKRLLQSGGAKVFAGHSSPLFKEASHLFADFSKLKPDEPRVNVAEAAAQGVNCLKPEYIADYLMKELPPPMNNYCLPDAIPYVRVTGTGLSRKRKTSGDVSDVKRSRHY
# modifications: left off: small tags and cut ends
# B6: 1050-1286 fragment: His6-Human TopBP1 fragment, residues 1050-1286 (protein)
# chain: NGSGKNDSKGVLTQTLEMRENFQKQLQEIMSATSIVKPQGQRTSLSRSGCNSASSTPDSTRSARSGRSRVLEALRQSRQTVPDVNTEPSQNEQIIWDDPTAREERARLASNLQWPSCPTQYSELQVDIQNLEDSPFQKPLHDSEIAKQAVCDPGNIRVTEAPKHPISEELETPIKDSHLIPTPQAPSIAFPLANPPVAPHPREKIITIEETHEELKKQYIFQLSSLNPQERIDYCHL
# modifications: left off: small tags and cut ends
# Key:
# Xatr-Xatrip [1] = assay: Kinase assay of Xatr-Xatrip complexes isolated from Xenopus egg extracts; type: biochemical; conditions: for ATR activation compared with the 972-1279 fragment: Xatr-XatripΔ222, PHAS-I, His6-human TopBP1 fragments; for activation of Xatr kinase activity toward PHAS-I: isolated Xatr-Xatrip complexes, 32P-ATP, result in words
# Xatr-Xatrip, sequence (Q9DE14 whole entry, the tested form may be a part): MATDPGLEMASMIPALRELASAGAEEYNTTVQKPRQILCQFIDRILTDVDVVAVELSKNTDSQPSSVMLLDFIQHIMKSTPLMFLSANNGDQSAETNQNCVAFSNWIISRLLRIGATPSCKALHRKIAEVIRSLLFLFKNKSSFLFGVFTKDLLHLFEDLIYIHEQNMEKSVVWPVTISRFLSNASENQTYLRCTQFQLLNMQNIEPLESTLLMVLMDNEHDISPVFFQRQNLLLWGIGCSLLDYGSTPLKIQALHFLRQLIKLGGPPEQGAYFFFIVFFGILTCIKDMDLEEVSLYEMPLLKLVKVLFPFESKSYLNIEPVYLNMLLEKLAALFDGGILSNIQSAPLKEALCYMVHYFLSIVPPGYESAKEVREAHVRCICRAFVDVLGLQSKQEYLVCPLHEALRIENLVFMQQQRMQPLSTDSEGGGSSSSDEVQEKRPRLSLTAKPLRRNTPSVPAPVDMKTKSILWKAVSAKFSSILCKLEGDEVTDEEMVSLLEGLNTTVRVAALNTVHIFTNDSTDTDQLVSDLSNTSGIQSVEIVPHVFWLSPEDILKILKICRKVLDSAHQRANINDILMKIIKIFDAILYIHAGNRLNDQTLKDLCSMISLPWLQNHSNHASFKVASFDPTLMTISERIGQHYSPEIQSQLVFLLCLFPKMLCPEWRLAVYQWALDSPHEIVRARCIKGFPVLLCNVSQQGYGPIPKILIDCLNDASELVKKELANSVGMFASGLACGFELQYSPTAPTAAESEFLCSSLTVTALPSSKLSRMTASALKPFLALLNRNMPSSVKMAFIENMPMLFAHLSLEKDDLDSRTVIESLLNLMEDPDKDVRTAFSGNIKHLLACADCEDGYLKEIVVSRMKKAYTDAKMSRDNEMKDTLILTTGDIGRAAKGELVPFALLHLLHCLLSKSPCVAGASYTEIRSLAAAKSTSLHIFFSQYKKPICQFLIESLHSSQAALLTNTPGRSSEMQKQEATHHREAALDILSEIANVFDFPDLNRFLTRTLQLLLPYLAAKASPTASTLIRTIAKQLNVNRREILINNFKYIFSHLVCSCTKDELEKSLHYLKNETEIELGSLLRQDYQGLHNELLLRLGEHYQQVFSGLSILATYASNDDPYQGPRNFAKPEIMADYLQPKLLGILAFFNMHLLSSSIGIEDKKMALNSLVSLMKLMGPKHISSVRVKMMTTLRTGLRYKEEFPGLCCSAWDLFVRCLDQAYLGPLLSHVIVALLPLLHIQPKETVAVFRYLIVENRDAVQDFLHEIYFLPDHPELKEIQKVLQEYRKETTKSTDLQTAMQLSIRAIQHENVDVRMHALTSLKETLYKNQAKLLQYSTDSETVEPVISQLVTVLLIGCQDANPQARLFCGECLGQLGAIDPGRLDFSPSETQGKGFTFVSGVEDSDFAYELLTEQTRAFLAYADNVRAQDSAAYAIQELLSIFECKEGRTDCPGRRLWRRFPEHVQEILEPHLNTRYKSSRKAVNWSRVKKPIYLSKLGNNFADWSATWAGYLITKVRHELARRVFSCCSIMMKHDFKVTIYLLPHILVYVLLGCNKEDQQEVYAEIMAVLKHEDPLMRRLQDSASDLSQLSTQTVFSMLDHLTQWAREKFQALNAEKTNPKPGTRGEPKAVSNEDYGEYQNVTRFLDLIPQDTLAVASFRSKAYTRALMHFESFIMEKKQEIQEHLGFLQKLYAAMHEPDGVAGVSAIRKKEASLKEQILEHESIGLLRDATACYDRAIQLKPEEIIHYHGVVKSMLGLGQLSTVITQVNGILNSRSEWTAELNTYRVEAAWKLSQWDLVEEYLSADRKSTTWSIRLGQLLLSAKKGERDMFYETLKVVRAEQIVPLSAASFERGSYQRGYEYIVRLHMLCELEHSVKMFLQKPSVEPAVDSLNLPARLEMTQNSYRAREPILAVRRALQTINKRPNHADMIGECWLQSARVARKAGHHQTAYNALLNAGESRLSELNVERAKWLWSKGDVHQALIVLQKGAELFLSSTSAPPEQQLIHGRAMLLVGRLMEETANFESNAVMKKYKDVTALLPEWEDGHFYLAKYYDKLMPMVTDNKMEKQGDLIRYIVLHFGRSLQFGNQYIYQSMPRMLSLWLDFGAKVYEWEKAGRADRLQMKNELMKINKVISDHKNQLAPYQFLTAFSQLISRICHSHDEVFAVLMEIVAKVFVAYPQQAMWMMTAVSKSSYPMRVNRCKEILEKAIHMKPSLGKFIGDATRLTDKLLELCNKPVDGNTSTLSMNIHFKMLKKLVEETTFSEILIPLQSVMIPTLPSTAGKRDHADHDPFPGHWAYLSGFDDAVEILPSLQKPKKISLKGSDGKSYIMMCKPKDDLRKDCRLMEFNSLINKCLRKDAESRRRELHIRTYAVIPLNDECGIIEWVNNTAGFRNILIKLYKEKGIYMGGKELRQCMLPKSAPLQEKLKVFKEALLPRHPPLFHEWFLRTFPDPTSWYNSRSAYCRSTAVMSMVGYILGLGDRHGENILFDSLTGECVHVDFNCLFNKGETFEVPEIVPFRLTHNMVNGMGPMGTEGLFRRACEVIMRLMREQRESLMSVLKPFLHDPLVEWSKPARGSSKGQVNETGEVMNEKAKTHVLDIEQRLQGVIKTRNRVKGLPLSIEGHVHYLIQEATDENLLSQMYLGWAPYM
# From the text: Specifically, Applicants first isolated Xatr from egg extracts by pull-downs with FLAG-tagged Xenopus ATRIP (Xatrip). For these experiments, Applicants used both full-length Xatrip and an N-terminal truncation mutant (ΔN222) that supports normal Xatr-dependent activation of Xchk1 in egg extracts (Kumagai et al., 2004; Kim et al., 2005).
# Applicants eluted the beads with FLAG peptide and mixed the eluates with a His6-tagged version of XtopBP1 that had been purified from baculovirus-infected insect cells (FIG. 1B). Finally, Applicants added ^32P-ATP and PHAS-I, a commonly used model substrate for ATR (Abraham, 2001).
# Xatrip-FLAG and XatripΔN222-FLAG (20 ng/μl each) were incubated in interphase extracts containing anti-FLAG M2 antibody beads (Sigma) for 60 min at room temperature. The beads were isolated and washed twice with buffer A (10 mM HEPES-KOH (pH 7.5), 150 mM NaCl, 0.1% CHAPS, and 2.5 mM EGTA) and twice with HEPES-buffered saline (HBS; 10 mM HEPES-KOH (pH 7.5) and 150 mM NaCl). Xatr-Xatrip complexes were eluted in one-tenth the volume of the egg extract in HBS containing 0.1 mg/ml 3×-FLAG peptide (Sigma) for 60 min at 4° C. Eluates (2 μl) were used for kinase assays as described below.
# Samples were incubated in 20 μl kinase buffer (50 mM Tris-HCl (pH 7.5), 10 mM MgCl2, 1 mM dithiothreitol, 100 μM nonradioactive ATP, and 100 μCi/ml [γ-^32P]ATP) containing 12.5 μg/ml PHAS-I or 50 μg/ml GST-Xmcm2 (62-122) for 30 min at room temperature. GST-XtopBP1 (972-1279) was added at a final concentration of 100 μg/ml unless indicated otherwise. In some cases, GST-Xmcm2 (62-122), GST-Xchk1 (306-352), or full-length Xchk1-Myc-His6 were used as substrates with only […] nonradioactive ATP. Reactions were terminated by boiling in gel sample buffer.
# human Mcm2 on S108 = assay: Phosphorylation of Mcm2 on S108 in transfected human 293T cells; type: cell-based
# From the text: To pursue this issue further, Applicants asked whether the ATR-activating domain of TopBP1 could induce ATR-dependent phosphorylation in human cells. For this purpose, Applicants constructed a version of the enhanced green fluorescent protein (EGFP) containing the SV40 nuclear localization sequence and residues 978-1286 of human TopBP1 (equivalent to residues 972-1279 of XtopBP1). Applicants also produced the W1145R mutant of this plasmid (analogous to the W1138R mutant of XtopBP1). Applicants transfected plasmids encoding these proteins into human 293T cells and performed immunoblotting with anti-phosphopeptide antibodies that detect phosphorylation of human Mcm2 on S108 (which corresponds to S92 of Xmcm2) (Cortez et al., 2004; Yoo et al., 2004).
# pEGFP-NLS-TopBP1 (978-1286), which encodes EGFP followed by a nuclear localization sequence (KKKRKV, SEQ ID NO: 11) and amino acids 978-1286 of human TopBP1, was prepared from pEGFP (Clontech) by standard polymerase chain reaction-based methods. Plasmids were transfected into 293T cells with Lipofectamine 2000 (Invitrogen).
# Xchk1 = assay: Ectopic phosphorylation of 35S-Xchk1 in Xenopus egg extracts without checkpoint-inducing DNA; type: biochemical; conditions: 35S-Xchk1, tautomycin, no checkpoint-inducing DNA template
# Method: Because the GST-XtopBP1 (972-1279) fragment could activate Xatr in vitro without the inclusion of DNA, Applicants reasoned that ectopic addition of this fragment to Xenopus egg extracts might also be able to trigger the Xatr-dependent phosphorylation of Xchk1 even in the absence of a checkpoint-inducing DNA template.
# Extracts from Xenopus eggs were prepared as described (Kumagai and Dunphy, 2000). A DNA replication checkpoint response was induced by addition of 50 μg/ml aphidicolin into extracts containing demembranated sperm nuclei (3000 per μl) (Kumagai and Dunphy, 2000). To monitor DNA replication, extracts containing 1000 sperm nuclei/μl were incubated with [α-^32P]dATP (Yoo et al., 2004).
# Xatr-Xatrip [2] = assay: Glutathione bead pull-down of Xatr and Xatrip from egg extracts; type: binding, Xenopus; conditions: egg extracts, immunoblotting
# Method: Specifically, Applicants incubated glutathione beads containing GST-XtopBP1 (972-1279) in egg extracts, reisolated the beads, and performed immunoblotting for both Xatr and Xatrip. […] In addition, in other experiments, there was no binding of Xatr or Xatrip to beads containing GST fusions of the 1-348, 333-646, or 623-984 segments from XtopBP1 (data not shown).
# Applicants also tested to see if the association of XtopBP1 with Xatr depends upon Xatrip. For this experiment, Applicants removed endogenous Xatrip from egg extracts by immunodepletion with anti-Xatrip antibodies. As described previously, this procedure leaves behind approximately 30% of the endogenous Xatr, the fraction that is not in a complex with Xatrip (Kumagai et al., 2004). Next, Applicants added GST-XtopBP1 (972-1279) to the Xatrip-depleted extracts and to mock-depleted extracts that had been prepared in parallel.
Molecule,ATR activation compared with the 972-1279 fragment (Xatr-Xatrip [1]),activation of Xatr kinase activity toward PHAS-I (Xatr-Xatrip [1]),further results
residues 978-1192: His6-Human TopBP1 fragment containing residues 978-1192,almost as effective as the 972-1279 fragment,,
human TopBP1 (residues 978-1192): GST fusion fragment of human TopBP1 (residues 978-1192) from between BRCT domains VI and VII,,activated Xatr-Xatrip very effectively,
B1,almost as effective as the 972-1279 fragment,,
B2,,,phosphorylation of Mcm2 on S108 (human Mcm2 on S108; immunoblotting): significantly elevated phosphorylation; phosphorylation of S108 (human Mcm2 on S108; indirect immunofluorescence): increase in the phosphorylation of S108
B3,"slight, but not very significant reduction",,
B4,,incapable of activating Xatr,phosphorylation of Xchk1 in egg extracts (Xchk1): did not induce any phosphorylation; binding of Xatr and Xatrip to glutathione beads (Xatr-Xatrip [2]): no binding
B5,,no Xatr-activating capacity,
B6,significant reduction,,

# From patent publication US8080531B2, “Methods for modulating checkpoint activation through TopBP1” (California Institute of Technology, priority 2006, dated 2011)
